The text below walks through data of patent US20060233708A1.

Where “and” joins values, the source holds several entries; their conditions need not be identical. Identical values can stand only once. Ends that are not written are not given here.

Assay [1] concerns the target TGF-β receptors in mink lung epithelial cells.
Assay [2] has the same target. Nature of the assay: competition with 125I-TGF-β1 for binding to mink lung epithelial cells.
For assay [3] the target is unchanged. Nature of the assay: specific binding of 0.1 nM 125I-TGF-β1 to mink lung epithelial cells.
Assay [4] shares this target. Description: specific binding of 125I-TGF-β1 to mink lung epithelial cells without peptide.
Assay [5] has the same target. Nature of the assay: specific binding of 125I-TGF-β3 to mink lung epithelial cells without peptide.
The target is the same in assay [6]. Nature of the assay: competition with 125I-TGF-β1 for binding to mink lung epithelial cells. This is another data set of the same source.
Assay [7] has the same target. Nature of the assay: competition with 125I-TGF-β2 for binding to mink lung epithelial cells.
For assay [8] the target is unchanged. Description: competition with 125I-TGF-β3 for binding to mink lung epithelial cells.
In assay [9] the target is type I TGF-β receptor (mink). Description: inhibition of 125I-TGF-β1 affinity labeling of receptors on mink lung epithelial cells.
Assay [10] has as its target type II TGF-β receptor (mink). The assay is described as above.
In assay [11] the target is type III TGF-β receptor (mink). The assay is described as above.
For assay [12], the target named is type V TGF-β receptor (mink). Described as above.
Assay [13] deals with TGF-β receptors in mink lung epithelial cells. Nature of the assay: specific binding of 125I-TGF-β2 to mink lung epithelial cells without peptide.

The term IC50 denotes the concentration needed to halve the response being measured. Read a high IC50 as weaker potency in that assay. Turning to “peptide β1^25 (41-65)-carbonic anhydrase (CA) conjugate (from UniProt P00915)”, the ED50 of growth inhibition as measured by DNA synthesis in mink lung epithelial cells in assay [1] came out at 100 nM. Also, in assay [2], the IC50 is 50 nM and the fold lower IC50 than peptide β1^25 (41-65) prior to conjugation is 20 fold.

With TGF-β1 (ligand), the specific binding without peptides in assay [3] turned out to be 3670 cpm/well. For the same molecule, the specific binding (0% inhibition) in [4] turned out to be 3930 cpm/well.

As for “peptide β1^25 (41-65)-bovine serum albumin (BSA) conjugate (from UniProt P02769)”, the ED50 of growth inhibition as measured by DNA synthesis in mink lung epithelial cells in assay [1] was determined as 100 nM. Further, in assay [2], the IC50 amounted to 60 nM and the fold lower IC50 than peptide β1^25 (41-65) prior to conjugation came out at 20 fold.

B1: TGF-β3 (ligand)
chain: ALDTNYCFRNLEENCCVRPLYIDFRQDLGWKWVHEPKGYYANFCSGPCPYLRSADTTHSTVLGLYNTLNPEASASPCCVPQDLEPLTILYYVGRTPKVEQLSNMVVKSCKCS
modifications: ^125I-labelled (iodination with Na^125I)
In assay [5], B1 had a specific binding (0% inhibition) of 4220 cpm/well.

B2: peptide β2^10 (49-58) S53A (peptide)
peptide: PYLWASDTQH
Molecule B2 displayed an IC50 in [6] of 40000 nM.

B3: peptide β1^10 (49-58) (peptide)
peptide: PYIWSLDTQY
For B3, the IC50 in [6] lay within 40000 to 70000 nM.

B4: peptide β2^25 (41-65) (peptide)
peptide: ANFCAGACPYLWSSDTQHSRVLSLY
modifications: not fully specified; cysteine pairing not given here
Turning to B4, the IC50 in assay [6] is 1000 nM and 2000 nM; in assay [7], 1000 nM and 2000 nM; in assay [8], 80 nM.

B5: peptide β3^25 (41-65) (peptide)
peptide: ANFCSGPCPYLRSADTTHSTVLGLY
modifications: not fully specified; cysteine pairing not given here
Regarding B5, the values for the IC50 in assay [6], in [7] and in [8] were 20000 nM, 20000 nM and 60 to 80 nM, respectively.

B6: peptide β2^10 (49-58) (peptide)
peptide: PYLWSSDTQH
B6 came in with an IC50 in [6] of 40000 to 70000 nM.

B7: peptide β1^25 (41-65) (peptide)
peptide: ANFCLGPCPYIWSLDTQYSKVLALY
modifications: not fully specified; cysteine pairing not given here
Regarding B7, the IC50 in [6] is 1000 nM and 2000 nM; in [7], 1000 nM and 2000 nM; in assay [8], 60 to 80 nM. This molecule also returned a concentration of complete inhibition of ^125I-TGF-β1 binding in [6] of 34 µM. Moreover, the percent inhibition of ^125I-TGF-β1-affinity labeling at 2.3 µM in [9], in [10] and in assay [11] was 30 to 40% each time. The molecule also showed a concentration at which ^125I-TGF-β1-affinity labeling was almost completely abolished in assay [12] of 2.3 µM.

B8: TGF-β2 (ligand)
chain: ALDAAYCFRNVQDNCCLRPLYIDFKRDLGWKWIHEPKGYNANFCAGACPYLWSSDTQHSRVLSLYNTINPEASASPCCVSQDLEPLTILYYIGKTPKIEQLSNMIVKSCKCS
modifications: ^125I-labelled (iodination with Na^125I)
In turn, B8 came in with a specific binding (0% inhibition) in assay [13] of 4510 cpm/well.
